Assay results from publication PMC5053586 (Cell Cycle, 2016).

Key:
[1] = molecular target: T1, TbERK8 (extracellular-signal regulated kinase 8 homolog, Tb927.10.5140) (Trypanosoma brucei, UniProt Q38B88); assay: HTRF kinase assay; assay type: biochemical
T1 sequence (Q38B88 1-442): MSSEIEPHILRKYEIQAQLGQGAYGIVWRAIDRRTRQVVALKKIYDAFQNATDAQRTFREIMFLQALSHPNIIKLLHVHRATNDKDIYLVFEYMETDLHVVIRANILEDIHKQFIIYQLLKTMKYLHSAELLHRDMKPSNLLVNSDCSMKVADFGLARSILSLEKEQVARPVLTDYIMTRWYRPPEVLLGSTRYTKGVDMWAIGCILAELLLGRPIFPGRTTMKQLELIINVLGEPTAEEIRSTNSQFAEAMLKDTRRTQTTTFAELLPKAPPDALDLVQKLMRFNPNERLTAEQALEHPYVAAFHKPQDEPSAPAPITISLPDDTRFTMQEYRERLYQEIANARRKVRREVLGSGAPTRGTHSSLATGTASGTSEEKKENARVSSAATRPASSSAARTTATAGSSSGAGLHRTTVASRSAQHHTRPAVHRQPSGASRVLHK

[2] = molecular target: GST-bound canonical PIP-box from T. brucei paraflagellar complex TbPFC19 (GSTtbPFC-PIP) (Trypanosoma brucei); assay: pull-down
[3] = molecular target: GST-bound canonical PIP-box from T. brucei aurora kinase 1 (GSTtbAUK1-PIP) (Trypanosoma brucei); assay: pull-down
[4] = molecular target: T1, TbERK8 (extracellular-signal regulated kinase 8 homolog, Tb927.10.5140); assay: […]-ATP kinase assay with MBP substrate, eight-point dose response; assay type: biochemical
[5] = molecular target: GST-TbERK8-PIP-box fusion protein (GSTtbE8-PIP) (Trypanosoma brucei); assay: pull-down

## COc1ccccc1C(=O)c1cnc(NC2CCN(C(=O)Nc3ccccc3)CC2)nc1N [SCYX5070]
[1]
  IC50: ~1.6 mM

## recombinant wt-TbPCNA6H (natural protein)
[2]
  fold pulled down against the TbERK8 PIP-box motif: 3 fold
[3]
  fold pulled down against the TbERK8 PIP-box motif: 5 fold

## Cn1cc(C2=C(c3cn(CCCSC(=N)N)c4ccccc34)C(=O)NC2=O)c2ccccc21 [Ro318220]
[4]
  IC50: 1400 nM

## hemagglutinin-tagged TbPCNA (wt-TbPCNAHA) (natural protein)
[5]
  fold pulled down against GST-Ctrl beads: 5 fold
